# Measured values from article PMC10058294, “Interaction of SARS-CoV-2 Nucleocapsid Protein and Human RNA Helicases DDX1 and DDX3X Modulates Their Activities on Double-Stranded RNA” (International Journal of Molecular Sciences, 2023).
# Molecular target: T1, recombinant full-length SARS-CoV-2 nucleocapsid protein (Np) (SARS-CoV-2, UniProt P0DTC9 1-419)
# T1 construct: also called N protein; recombinant Np
# Assay: pull-down
# Conditions: both partners purified
binder,measurement,value
"HALO-tagged recombinant full-length human DDX3X (enzyme, UniProt O00571 1-662, looked up, TEV site between tag and DDX3X; The helicase and EMSA assays used another construct (pET30a(+)-DDX3X, purified from ShuffleT7 E. coli); also called HALO-DDX3X; Halo-tagged DDX3X; not shown: HaloTag, N-terminal, kept) MSHVAVENALGLDQQFAGLDLNSSDNQSGGSTASKGRYIPPHLRNREATKGFYDKDSSGWSSSKDKDAYSSFGSRSDSRGKSSFFSDRGSGSRGRFDDRGRSDYDGIGSRGDRSGFGKFERGGNSRWCDKSDEDDWSKPLPPSERLEQELFSGGNTGINFEKYDDIPVEATGNNCPPHIESFSDVEMGEIIMGNIELTRYTRPTPVQKHAIPIIKEKRDLMACAQTGSGKTAAFLLPILSQIYSDGPGEALRAMKENGRYGRRKQYPISLVLAPTRELAVQIYEEARKFSYRSRVRPCVVYGGADIGQQIRDLERGCHLLVATPGRLVDMMERGKIGLDFCKYLVLDEADRMLDMGFEPQIRRIVEQDTMPPKGVRHTMMFSATFPKEIQMLARDFLDEYIFLAVGRVGSTSENITQKVVWVEESDKRSFLLDLLNATGKDSLTLVFVETKKGADSLEDFLYHEGYACTSIHGDRSQRDREEALHQFRSGKSPILVATAVAARGLDISNVKHVINFDLPSDIEEYVHRIGRTGRVGNLGLATSFFNERNINITKDLLDLLVEAKQEVPSWLENMAYEHHYKGSSRGRSKSSRFSGGFGARDYRQSSGASSSSFSSSRASSSRSGGGGHGSSRGFGGGGYGGFYNSDGYGGNYNSQGVDWWGN",binding result,binds
